For assay [1], the target named is T1, TfR2 (transferrin receptor 2) (UniProt Q9UP52 105-801, limits assumed).
T1 sequence (looked up): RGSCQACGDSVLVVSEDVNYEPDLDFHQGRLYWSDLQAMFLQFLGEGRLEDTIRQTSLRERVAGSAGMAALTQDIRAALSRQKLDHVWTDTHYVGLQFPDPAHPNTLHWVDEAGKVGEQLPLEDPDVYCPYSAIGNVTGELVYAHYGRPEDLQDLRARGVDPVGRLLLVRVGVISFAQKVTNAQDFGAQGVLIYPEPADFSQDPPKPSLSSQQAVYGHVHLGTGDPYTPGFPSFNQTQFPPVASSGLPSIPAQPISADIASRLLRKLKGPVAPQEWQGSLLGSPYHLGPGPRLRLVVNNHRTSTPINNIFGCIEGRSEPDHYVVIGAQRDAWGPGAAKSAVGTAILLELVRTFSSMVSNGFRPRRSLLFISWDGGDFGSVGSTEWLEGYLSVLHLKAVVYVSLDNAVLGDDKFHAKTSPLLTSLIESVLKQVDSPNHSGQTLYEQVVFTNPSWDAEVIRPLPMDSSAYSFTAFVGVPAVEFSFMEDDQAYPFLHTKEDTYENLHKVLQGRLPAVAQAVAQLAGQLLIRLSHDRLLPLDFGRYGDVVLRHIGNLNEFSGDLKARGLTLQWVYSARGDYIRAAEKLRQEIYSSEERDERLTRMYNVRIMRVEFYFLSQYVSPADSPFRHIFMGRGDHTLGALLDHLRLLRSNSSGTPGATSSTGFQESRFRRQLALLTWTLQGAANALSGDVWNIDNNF
Nature of the assay: A450 plate assay on TfR2 (method not described in the text).

Assay [2] addresses T2, recombinant cyno transferrin receptor protein (Sino Biological 90253-C07H) (cyno, UniProt H9EXL1 89-760 (rhesus entry)).
T2 construct: Bought protein coated on ELISA plates; also called recombinant cyno TfR1; cynoTfR1
In words: ELISA on plate-coated recombinant cyno TfR1 (CD71); fit: specific binding with Hill slope. The essentials:
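Plates coated overnight at 4° C with recombinant human or cyno TfR1 (1 ng/μL), blocked, then incubated with samples up to 10 nM for 1 h at room temperature. Bound IgG detected with HRP anti-human Fcγ and TMB (A450 minus A570); Bmax, h and Kd from specific-binding-with-Hill-slope fit.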
In general terms: ELISA stands for enzyme-linked immunosorbent assay.

T2 sequence (chain, as listed by the source C07H C07H): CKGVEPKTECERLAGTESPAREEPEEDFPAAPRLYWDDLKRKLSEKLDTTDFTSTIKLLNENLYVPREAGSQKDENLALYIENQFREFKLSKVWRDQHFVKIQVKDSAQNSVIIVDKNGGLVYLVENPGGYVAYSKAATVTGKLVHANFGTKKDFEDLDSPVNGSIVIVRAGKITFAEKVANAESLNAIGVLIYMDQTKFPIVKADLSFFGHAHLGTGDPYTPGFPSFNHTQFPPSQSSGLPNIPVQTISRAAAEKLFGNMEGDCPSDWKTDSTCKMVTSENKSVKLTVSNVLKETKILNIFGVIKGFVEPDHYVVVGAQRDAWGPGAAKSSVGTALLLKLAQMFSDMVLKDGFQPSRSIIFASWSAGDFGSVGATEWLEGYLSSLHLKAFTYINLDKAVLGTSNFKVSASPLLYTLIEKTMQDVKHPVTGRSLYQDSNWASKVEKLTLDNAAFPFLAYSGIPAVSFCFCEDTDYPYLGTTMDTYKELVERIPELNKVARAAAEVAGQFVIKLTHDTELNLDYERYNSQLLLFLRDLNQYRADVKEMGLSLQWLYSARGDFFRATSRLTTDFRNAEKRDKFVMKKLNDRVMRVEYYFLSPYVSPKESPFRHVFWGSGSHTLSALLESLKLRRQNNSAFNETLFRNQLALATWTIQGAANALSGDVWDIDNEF

B1: 13E4_WT (parent chimeric anti-TfR antibody) (antibody, V domains shown)
VH: QVQLQQPGAELVKPGASVKLSCKASGYTFTNYWMHWVKQRPGQGLEWIGEINPINGRSNYGERFKTKATLTVDKSSSTAYMQLSSLTSEDSAVYYCARGTRAMHYWGQGTSVTVSS
VL: DIQMTQSPASLSVSVGETVTITCRTSENIYNNLAWYQQKQGKSPQLLVYAATNLADGVPSRFSGSGSGTQYSLKINSLQSEDFGNYYCQHFWGTPLTFGAGTKLELK
notes: also called 13E4_WT 1st; 13E4_WT 2nd
With B1, in assay [1], the binding result is reported as “no binding (tested: 1000 nM)”. Also, in assay [2], the Bmax came out at 99.1 % max binding, the Kd worked out at 5.82 pM and the h turned out to be 1.34.

As usually defined, the Kd is a measure of binding affinity in units of concentration.

The values are drawn from patent US20200325237A1 (AVIDITY BIOSCIENCES, published 2020).
